Drawing on PMC10901556, “Conservation of Affinity Rather Than Sequence Underlies a Dynamic Evolution of the Motif-Mediated p53/MDM2 Interaction in Ray-Finned Fishes” (Molecular Biology and Evolution, 2024), this text covers Kd for three molecules.

B1: MDM2_(D.rerio) SWIB domain (domain or fragment)
chain: SQISKVDNEKLVRPKVQLKSLLEDAGADKDVFTMKEVMFYLGKYIMSKELYDKQQQHIVHCGEDPLGAVLGVKSFSVKEPRALFALINRNLVT

Common to all, as to assay: fluorescence polarisation; displacement: complex of MDM2 (0.2-2 μM) and FITC-p53TAD_(human)^15–26 (15 nM) displaced by increasing unlabeled p53TAD peptide or p53TAD^full-length; KD calculated from IC50 (Nikolovska-Coleska et al. 2004); 20 mM sodium phosphate pH 7.4, 150 mM NaCl, 1 mM TCEP
Common to all, as to conditions: both partners purified

The target in one test is T1, p53TAD_(H.sapiens)^15–27 (Homo sapiens (human), N-terminal acetylated).
T1 construct: also called p53TAD_(human)^15–27; Homo sapiens (human) p53TAD^15–27; source: bought: GeneCust (France), peptide

Test [1] addresses B1.
Test [2] concerns the target T2, MDM2 SWIB domain from Takifugu rubripes (Japanese puffer) (Takifugu rubripes (Japanese puffer)).
T2 construct: MDM2 SWIB domain, Takifugu rubripes; pETM33 vector; Construct limits are in supplementary Spreadsheet S5; also called MDM2 T. rubripes; source: E. coli BL21 (DE3), purified (glutathione agarose, PreScission cleavage, Nickel Sepharose flow-through, SEC); not shown: His6, N-terminal, cleaved; GST, N-terminal, cleaved

Where no end group is shown, it is not given here.

As for B1, the dissociation constant (Kd) (as a rule, the concentration at which binding is half-saturated) in the test with p53TAD_(H.sapiens)^15–27 is 0.79 ± 0.05 µM.

B2: Danio rerio (zebrafish) p53TADP2 p53TAD^15–27 (peptide)
peptide: Ac-SQEFAELWEKNL
notes: numbers count on: human p53TAD; also called p53TAD^15–27_(D.rerio); source: bought: GeneCust (France), peptide
Turning to B2, the dissociation constant (Kd) in test [1] was 3.6 ± 0.3 µM.

B3: Takifugu rubripes (Japanese puffer) p53TADP1 p53TAD^full-length (domain or fragment)
chain: MTLNEMTSSSMFLCRSSSDLPAHHRGRMEDEGFSLPLSQDTFQDLWENVAAPSIVTIPTTSLENEQWHQELLMNYPELPFNEELFNLPSEMASKDSANLSTPTVPV
On to B3, for which, in test [2], the Kd is 0.47 ± 0.03 µM.
